From the RNAGym collection of RNA variant scans (doi:10.7554/elife.80360)

B1: HDV Ribozyme (parent)
chain: GGCCGGCAUGGUCCCAGCCUCCUCGCUGGCGCCGGCUGGGCAACAUUCCGAGGGGACCGUCCCCUCGGUAAUGGCGAAUGGGACCCA

Variants of: B1
Assay: self-cleavage, relative activity (ratio to wild type); higher = more cleavage; co-transcriptional

Variant	self-cleavage
G1C G5U	0.175
G17U C36U	0.166
A43U C62G	0.332
C48G A87G	0.975
G1C G55U	0.203
C14U G81U	0.729
C3G A56C	0.681
C26A G67C	0.985
C26G A43G	0.437
C3U A16U	0.831
G17C C84G	0.18
G6C A43U	0.0594
C62U G74A	0.383
C15U U79C	0.849
C15A G76C	0.767
G1U C41A	0.496
U60G G67A	0.91
C21A A70G	0
U65A C66A	1.08
U37A G81A	0.166
C7A A45G	0.705
U20C G54U	0.122
C19U C26U	0.718
U12A A43U	0.147

Variant	self-cleavage
U47A U65G	0.931
C49U A87G	0.959
C44U A78G	0.242
G29A G76A	0.328
A71U U72C	0.57
G29C C44U	0
U27C G76C	1.21
C26A G68C	0.87
C3A G68A	0.408
A77U A87C	0.655
C57U C75G	0.0369
C3G G81A	0.201
A45C C62A	0.584
G54U C58A	1.07
U60A A83C	0.554
C24U U37C	0.753
G1U C36A	0.158
C19U U46G	0
U60A C75A	0.0811
A42G U47C	0.532
G6U G39A	0.0811
G53A C85A	0.933
G11C C66G	0.383
G11C C66A	0.285

Variant	self-cleavage
G82C	0.259
G6C C19A	0
U60G G74C	0.443
G11A G81C	0.0396
C32G A43U	0
U46C G82U	0.138
C15G U37A	0
C62A G74U	0.367
C19A A83C	0.0426
G34A U47A	0.0997
U23A C24A	0.623
C3A C22G	0.0631
G2C C75U	0.0594
C21A A56U	0.108
G10A C75A	0.0898
G1U G5C	0.755
G29U U60A	0.248
G28A G73A	0.112
C26G G31A	0.744
U72C G80A	0.138
G6C G68U	0.277
A51U A87U	1.03
C4A G11C	0.0604
G40C U60A	0.25

Variant	self-cleavage
G38U C86G	0.0573
U65C A78C	0.293
G31C C84U	0.295
C36U A45G	0.522
C4A C24G	0.0573
G5C G35U	0.0308
G54A A78G	0.332
C7A G10U	0.0723
C24A U47C	0.508
C30G U79A	0.156
G2C G11C	0.155
C24G G38U	0.0268
G53C A56G	0.962
G6A G53U	0.786
U12C A42C	0.0489
C15G G76U	0.831
A70G G80A	0.271
G10C G55A	1.11
U12A C44A	0
U47C G52U	0.698
G1A U46C	0.208
G5A A71U	0.231
G34A C61A	0.302
G31A A56U	0.482

Variant	self-cleavage
G31C G39U	0.277
G53A A70U	1.02
G59U C84A	0.863
C30U G59A	0.878
G52U C58G	0.95
G74U C84G	0.126
C21G C33U	0
U12C G76C	0.364
G6U A70G	0.571
G17C C49A	0.467
C22U A78C	0.126
A42U U69G	0.519
C4A A71U	0.259
A51U C57G	1.04
G35U A83U	0.145
C63U A78G	0.755
G35A A43U	0.108
C24U G25C	0.125
G11U C19U	0.0489
G17C C22U	0.0639
G11U G39C	0
G67U G80U	0.25
G6U G25C	0.0426
U9A C41A	0.831

Variant	self-cleavage
G55U G80U	0.21
A45C A83G	0.23
C4A G67A	0.149
C41A G67U	0.739
C44U G59A	0.819
G39C G55A	0.211
G39C G55U	0.305
C21A A42G	0.158
C18A G52A	0.196
C62A C84U	0.618
U69C A70U	0.875
A42C A56G	0.415
U20G G59U	0.231
C18G A43U	0.189
C15A G29A	0.117
G34C U65G	0.208
C24G C49U	0.115
A43G C85U	0.446
C24U C61G	0.745
G38C A78G	0.0639
U72C A83U	0.128
A16U U65C	0.965
G17A C49A	0.727
G29C G52U	0

Variant	self-cleavage
C33U G59C	1.01
A51U G67C	0.78
A16C U37C	0.831
A16C U37G	0.0923
C7A C44G	0.0594
C18A A87U	0.126
C18G U23G	0
A43U A71G	0.405
U9A G80U	0.213
A71U C85G	0.587
G10U U69A	0.813
G6C G53U	0.138
G17C C86A	0.365
U9G A78U	0.0692
U47G C86G	0.95
C30A C64A	0.536
C19A G54C	0.0817
A16U C22U	0.612
A45G G50U	1.16
G10C A42U	0.289
C19G U46G	0.107
G67A U72A	0.532
C22A A87G	0.33
